Test [1] has as its target T1, human PD-1-His (human, UniProt Q15116 25-167, limits assumed).
T1 construct: Antigen of the Octet assays; not shown: His tag
Briefly: Octet (BLI), bivalent IgG1 mAb.

Test [2] has as its target T1, human PD-1-His. As to the kind of experiment: Octet (BLI), bivalent IgG1 mAb; legend calls the constant apparent (KDapp). For orientation: In BLI a coated tip is dipped into the sample, and binding shifts an interference pattern.
Test [3] addresses T1, human PD-1-His. Briefly: Octet (BLI), AHC capture of the bivalent mAb, PD-1 in solution. An excerpt: (§1) In particular, anti-human IgG-Fc (AHC) biosensors were used to capture the test articles and dipped into multiple concentrations of PD-1.
Test [4] has as its target T1, human PD-1-His. As to the kind of experiment: Octet (BLI), AHC biosensors capture the bivalent mAb, dipped into multiple concentrations of PD-1; KDapp per legend.
Text: as §1

T1 sequence (Q15116 25-167 limits assumed): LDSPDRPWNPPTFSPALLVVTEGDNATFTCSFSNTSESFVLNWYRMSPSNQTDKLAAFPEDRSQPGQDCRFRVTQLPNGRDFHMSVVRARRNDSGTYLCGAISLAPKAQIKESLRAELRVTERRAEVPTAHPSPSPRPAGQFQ

B1: H1.188_L1.140 (XENP32434) (antibody, V domains shown)
VH: EVQLVESGGGLVQPGGSLRLSCAASGFTFSSLGMHWVRQAPGKGLEWVSYISGGSSIIYYADSVKGRFTISRDNAKNSLYLQMNSLRAEDTAVYYCARGGTLVFSPDYWGQGTLVTVSS
VL: DIVMTQSPDSLAVSLGERATINCKSSQSLLHSGNQYNYLTWYQQKPGQPPKLLIYWASTRESGVPDRFTGSGSGTDFTLTISSLQAEDVAVYYCQNDYTYPFTFGSGTKLEIKR
notes: VH-F34L/S55G/R109T/W112F, VL-N31H/K36Y/S99T (Xencor #); Kabat positions VH-32/52A/97/100, VL-27D/30/93; also called mAb C[PD-1]_H1.188_L1.140
For orientation: koff means the first-order rate constant of dissociation. One may read the kon as a measure of how fast the partners come together. The low end stands for slow association, the high end for fast association. In test [1], B1 came in with an off-rate constant (koff) of 0.000177 s⁻¹ and a kon of 181000 M⁻¹ s⁻¹. Also, the Kd in test [2] came out at 0.981 nM.

B2: mAb C[PD1]_H1.180_L1.140 (bivalent IgG1) (antibody, V domains shown)
VH: EVQLVESGGGLVQPGGSLRLSCAASGFTFSSLGMHWVRQAPGKGLEWVSYISGGSSIIYYADSVKGRFTISRDNAKNSLYLQMNSLRAEDTAVYYCARGGELVFSPDYWGQGTLVTVSS
VL: DIVMTQSPDSLAVSLGERATINCKSSQSLLHSGNQYNYLTWYQQKPGQPPKLLIYWASTRESGVPDRFTGSGSGTDFTLTISSLQAEDVAVYYCQNDYTYPFTFGSGTKLEIKR
notes: Bivalent IgG1 format with E233P/L234V/L235A/G236_/S267K; copies: 2 + 2
On to B2, for which, in test [1], the koff was found to be 0.000154 s⁻¹ and the kon is 256000 M⁻¹ s⁻¹. Moreover, the Kd in test [2] was determined as 0.601 nM.

B3: H1.219_L1.1 (XENP32835) (antibody, human IgG1, kappa, V domains shown)
VH: EVQLVESGGGLVQPGGSLRLSCAASGFTFSSFGMHWVRQAPGKGLEWVSYISSGSSIIYYADSVKGRFTISRDNAKNSLYLQMNSLRAEDTAVYYCARGGSLYLSPDYWGQGTLVTVSS
VL: DIVMTQSPDSLAVSLGERATINCKSSQSLLHSGNQKNYLTWYQQKPGQPPKLLIYWASTRESGVPDRFTGSGSGTDFTLTISSLQAEDVAVYYCQNDYSYPFTFGSGTKLEIKR
notes: VH substitution R109S/V111Y/W112L (Xencor #) but R97S/V99Y/W100F in the Kabat column: the two columns disagree; also called mAb C[PD1]_H1.219_L1.1_IgG1_PVA_/S267K
Regarding B3, in test [3], the koff is 0.00489 s⁻¹ and the association rate constant (kon) came out at 197000 M⁻¹ s⁻¹. The molecule further displayed a Kd in test [4] of 24.8 nM.

B4: H1.224_L1.1 (XENP32840) (antibody, human IgG1, kappa, V domains shown)
VH: EVQLVESGGGLVQPGGSLRLSCAASGFTFSSFGMHWVRQAPGKGLEWVSYISSGSSIIYYADSVKGRFTISRDNAKNSLYLQMNSLRAEDTAVYYCARGGRRLFSPDYWGQGTLVTVSS
VL: DIVMTQSPDSLAVSLGERATINCKSSQSLLHSGNQKNYLTWYQQKPGQPPKLLIYWASTRESGVPDRFTGSGSGTDFTLTISSLQAEDVAVYYCQNDYSYPFTFGSGTKLEIKR
notes: VH substitution L110R/V111L/W112F (Xencor #); L98R/V99L/W100F (Kabat); also called mAb C[PD1]_H1.224_L1.1_IgG1_PVA_/S267K
In test [3], B4 registered a koff of 0.00416 s⁻¹ and a kon of 59400 M⁻¹ s⁻¹. Besides, the Kd in test [4] is 70 nM.

B5: mAb C[PD1]_H1.177_L1.140 (bivalent IgG1) (antibody, V domains shown)
VH: EVQLVESGGGLVQPGGSLRLSCAASGFTFSSLGMHWVRQAPGKGLEWVSYISGGSSIIYYADSVKGRFTISRDNAKNSLYLQMNSLRAEDTAVYYCARGGRLVFSPDYWGQGTLVTVSS
VL: DIVMTQSPDSLAVSLGERATINCKSSQSLLHSGNQYNYLTWYQQKPGQPPKLLIYWASTRESGVPDRFTGSGSGTDFTLTISSLQAEDVAVYYCQNDYTYPFTFGSGTKLEIKR
notes: as for B2
In test [1], B5 showed a koff of 0.00022 s⁻¹ and a kon of 138000 M⁻¹ s⁻¹. In addition, the Kd in test [2] was found to be 1.6 nM.

B6: H1.215_L1.1 (XENP32831) (antibody, human IgG1, kappa, V domains shown)
VH: EVQLVESGGGLVQPGGSLRLSCAASGFTFSSFGMHWVRQAPGKGLEWVSYISSGSSIIYYADSVKGRFTISRDNAKNSLYLQMNSLRAEDTAVYYCARGARLVFSPDYWGQGTLVTVSS
VL: DIVMTQSPDSLAVSLGERATINCKSSQSLLHSGNQKNYLTWYQQKPGQPPKLLIYWASTRESGVPDRFTGSGSGTDFTLTISSLQAEDVAVYYCQNDYSYPFTFGSGTKLEIKR
notes: VH substitution G108A/W112F (Xencor #); G96A/W100F (Kabat); also called mAb C[PD1]_H1.215_L1.1_IgG1_PVA_/S267K
In test [3], B6 registered a koff of 0.00482 s⁻¹ and a kon of 107000 M⁻¹ s⁻¹. Moreover, the Kd in test [4] was determined as 44.9 nM.

B7: H1.216_L1.1 (XENP32832) (antibody, human IgG1, kappa, V domains shown)
VH: EVQLVESGGGLVQPGGSLRLSCAASGFTFSSFGMHWVRQAPGKGLEWVSYISSGSSIIYYADSVKGRFTISRDNAKNSLYLQMNSLRAEDTAVYYCARGGSVLFSPDYWGQGTLVTVSS
VL: DIVMTQSPDSLAVSLGERATINCKSSQSLLHSGNQKNYLTWYQQKPGQPPKLLIYWASTRESGVPDRFTGSGSGTDFTLTISSLQAEDVAVYYCQNDYSYPFTFGSGTKLEIKR
notes: VH substitution R109S/L110V/V111L/W112F (Xencor #); R97S/L98V/V99L/W100F (Kabat); also called mAb C[PD1]_H1.216_L1.1_IgG1_PVA_/S267K
In test [3], B7 yielded a koff of 0.00218 s⁻¹ and a kon of 193000 M⁻¹ s⁻¹. In addition, in test [4], the Kd came out at 11.4 nM.

B8: H1.223_L1.1 (XENP32839) (antibody, human IgG1, kappa, V domains shown)
VH: EVQLVESGGGLVQPGGSLRLSCAASGFTFSSFGMHWVRQAPGKGLEWVSYISSGSSIIYYADSVKGRFTISRDNAKNSLYLQMNSLRAEDTAVYYCARGGHQVFSPDYWGQGTLVTVSS
VL: DIVMTQSPDSLAVSLGERATINCKSSQSLLHSGNQKNYLTWYQQKPGQPPKLLIYWASTRESGVPDRFTGSGSGTDFTLTISSLQAEDVAVYYCQNDYSYPFTFGSGTKLEIKR
notes: VH substitution R109H/L110Q/W112F (Xencor #); R97H/L98Q/W100F (Kabat); also called mAb C[PD1]_H1.223_L1.1_IgG1_PVA_/S267K
In test [3], B8 registered a koff of 0.00436 s⁻¹ and a kon of 123000 M⁻¹ s⁻¹. The molecule also yielded a Kd in test [4] of 35.4 nM.

Values taken from patent US20240294593A1 (Genentech, published 2024).
